# Measurements: the DeepSol protein solubility set
# Assay: soluble on expression in E. coli; label from the status in PepcDB or PDB records
row,Sequence,soluble on expression in E. coli
1,MASPPPFHSQKLPGEYFRYKGVPFPVGLYSLESISLAENTQDVRDDDIFIITYPKSGTTWMIEIICLILKEGDPSWIRSVPIWERAPWCETIVGAFSLPDQYSPRLMSSHLPIQIFTKAFFSSKAKVIYMGRNPRDVVVSLYHYSKIAGQLKDPGTPDQFLRDFLKGEVQFGSWFDHIKGWLRMKGKDNFLFITYEELQQDLQGSVERICGFLGRPLGKEALGSVVAHSTFSAMKANTMSNYTLLPPSLLDHRRGAFLRKGVCGDWKNHFTVAQSEAFDRAYRKQMRGMPTFPWDEDPEEDGSPDPEPSPEPEPKPSLEPNTSLEREPRPNSSPSPSPGQASETPHPRPS,soluble
2,MASVSFGGLATGLDSNTLISQLMYLERAPERILESKKSTISSQIDVYTQVTNLLNSFKTLAAGMNTATGFMGKTTSVGDSTVATATSSSIASPGSFNLTVNSLAKNERQVVDQGYASADALNFKTGTFTISGVATPITIAEGQNSLQGIASAINASGANVTASIINDGSANPYRLVITGKDTNNYTLNFSGLTGDPASGSAYTTPTITKSGPTYQAGAAASFSVNGIAITKTSNIVTDVIPGVTLTLLKEGGATTTVTVGNDTSGVTKKINDFVGAYNAAMSQINKQSEYNATTKKGGVLSGDSTLRSVKTQLQNVLTTPVAGITGKYSTLADIGITTDRSNGTLTVDATKLADALGSNFNDVVELFTKNGGVSNLDTEKYGVAEQFRKVIDRFTHAYEGPSSTANGIISSRVRGLNDTIKSIDDQIDAMEVRMERKEEALKKQFTAMETLVSSLTTQGNSLISYLYGS,not soluble
3,MASVTLKNVCKAYGDVLISKNVDLEIQEGEFVVFVGPSGCGKSTLLRCIAGLEDITSGDLYIGEQRMNDVEPSKRGVGMVFQSYALYPHLNLYDNMSFGLKLSKADKSEIKKRVDHAAEILQLSHLLDRQPKALSGGQRQRVAIGRTLVSQPNVFLLDEPLSNLDAALRVQMRSEITKLQRKLGCTMIYVTHDQVEAMTMADKIVVLDAGFVSQVGKPLELYHYPQNRFVAGFIGSPKMNFMSVFIEGVEKDRVQVQLSNGTTFWIPVDGTTVTRGERMSLGIRPEHLVEAEHGDAKIEGKVMIVEKLGNETQVYMNLKGSDSDVIYRQPDTLDVETGDTLTIGIPAHRCHLFHSDGRACRRLHKEKGVDLPA,not soluble
4,MASWSHPQFEKGASTSLYKKAGLMDSQRSTLVHWFRKGLRLHDNPALSHIFTAANAAPGRYFVRPIFILDPGILDWMQVGANRWRFLQQTLEDLDNQLRKLNSRLFVVRGKPAEVFPRIFKSWRVEMLTFETDIEPYSVTRDAAVQKLAKAEGVRVETHCSHTIYNPELVIAKNLGKAPITYQKFLGIVEQLKVPKVLGVPEKLKNMPTPPKDEVEQKDSAAYDCPTMKQLVKRPEELGPNKFPGGETEALRRMEESLKDEIWVARFEKPNTAPNSLEPSTTVLSPYLKFGCLSARLFNQKLKEIIKRQPKHSQPPVSLIGQLMWREFYYTVAAAEPNFDRMLGNVYCMQIPWQEHPDHLEAWTHGRTGYPFIDAIMRQLRQEGWIHNLARHAVACFLTRGDLWISWEEGQRVFEQLLLDQDWALNAGNWMWLSASAFFHQYFRVYSPVAFGKKTDPQGHYIRKYVPELSKYPAGCIYEPWKASLVDQRAYGCVLGTDYPHRIVKHEVVHKENIKRMGAAYKVNREVRTGKEEESSFEEKSET,soluble
5,MASYRKRENGLWEYRISYKTIDGKYKRKEKGGFKTKKLAQAAAIEIEKKLTQNILTNDEVTLYDFVKTWSEVYKRPYVKDKTWETYSKNFKHIKNYFQELKVKDITPLYYQKKLNEFGEKYAQETLEKFHYQIKGAMKVAVREQVVTFNFAEGAKVKSQVEPKNEEEDFLEEREYKALLALTRENIQYVSYFTLYLLAVTGLRFSEAMGLTWSDIDFKNGILDINKSFDYSNTQDFADLKNESSKRKVPIDSNTIDILREYKKNHWQANIKNRVCFGVSNSACNKLIKKIVGRKVRNHSLRHTYASFLILNGVDIVTISKLLGHESPDITLKVYTHQMEALAERNFEKIKNIFLVA,not soluble
6,MATGTATEKPKIVWNEGRHRFETDDHEAFIEYKMKNDGKVMDLVRTFVPPSKAGLGLASHLCVAAFEHASEHSFSIIPTCSYVSVYISSFLKKLR,not soluble
7,MATIGLDRLYYAKITENENGEETYATPVPLAKAITAELSVELAEATLYADDGAAEVVKEFQSGTLTLGVADIGVDAAEVLTGATLDDNKVLISTSEDGGAPVAIGFRAKKANGKYRYFWLYRVKFGIPATNLQTKGDSITFSTPTIEGTVMRRNKPDGQGKHPWKAEVSEDDPGVLPETIAGWYTEVYEPVFAVGGGS,not soluble
8,MATITQRNGKWRVQIRMKGVSRSATFERASDAKAWAARIESQIMDGIQGNAPRNTIFADLIRRYLSEVTPSKRGAREESYRIGRALKTPLAKVRLADLRPQDFADWRDQRLQEVSPTSVGRELTTLSAVCEHAMKEWGLLRENPVRKISKPKKSRARTRRPTEQEIADICAALLYRPNEKPKMAVQRVAVAVLFAIETAMRAGEICGLKWADVNMRRRIAHLPITKNGDSRDVPLSLRAAELIEQLRGIDDTWVFSLDAKSLDVLFRRARDNCGIQGLHFHDTRREALTRLSKKVPVEVLAKISGHRDLRILLNVYYRPDMADIAKMLD,not soluble
9,MATLDHLLEELFEACSVFDKFPVSFNRTLIDELVDCLDFEEPTLTVIRKFVRNLDFEGKLAPIRMVIRLLDAAIKNNKFRNEDDLLLEFIQKSEAILSRPRNRLLLQDLFNFYTNPVVFAVREPESWLVVIRWVMNEFADEYLSCFHIDLFVKFICQIPSAAEARRLNIISEAISPDLVGSFSARIIYNYAQDLTIDECNTFVNNFRLSSLGYRWPAIRVLLKMRELHPSLVIPLAPASWTEENRRVDVICRLLFPMDFDTLKMMDVQLENVEALVDSVLDSPVDIDLKEKMLDHMNERQFEKYFDELLSFAKIESNDVNIHVTSALRSLPQHATRQKVAQLFEALGDKILDLALILNLSLAYGSNAFDFPEFEKFKDRYSKLVSDAIKAPVGESNAERIITVLECMKLFPCFLPVKADETAVYLDFSNSLTLNEKGAREVPVKTTGHEKMHVTVLLTARADGYKCRPYVLLPRTRPDKEIAARFKNSLQLSWCNRTFFNDEVTEDYLNTIIGPPFFGKRLLAWDAFRCHISDATKRVLKNLKVDTAVVPGGCTKFVQAPDVYWNSPFKASIRRSYEDWMVHGQKSFTKSNNMRPPSMLQYLEWIENAWNDLPKDLILKSFKGCALTIATDGSEDNQIHCFAPNGSIPSGLDLLNSTRIENSLVDLVQDIGIDESQEEGNESDNSIISVG,not soluble
10,MATQSDLMELEMAMDPDRKAAVSHWQQQSYLDSGIHSGATTTAPSLSGKGNPEDDDVDNQVLYEWEQGFNQSFNQEQVADIDGQYAMTRAQRVRAAMFPETLDEGMQIPSTQFDSAHPTNVQRLAEPSQMLKHAVVNLINYQDDAELATRAIPELTKLLNDEDQVVVNKAAVMVHQLSKKEASRHAIMRSPQMVSAIVRTMQNTNDVETARCTSGTLHNLSHHREGLLAIFKSGGIPALVNMLGSPVDSVLFHAITTLHNLLLHQEGAKMAVRLAGGLQKMVALLNKTNVKFLAITTDCLQILAYGNQESKLIILASGGPQALVNIMRTYTYEKLLWTTSRVLKVLSVCSSNKPAIVEAGGMQALGLHLTDPSQRLVQNCLWTLRNLSDAATKQEGMEGLLGTLVQLLGSDDINVVTCAAGILSNLTCNNYKNKMMVCQVGGIEALVRTVLRAGDREDITEPAICALRHLTSRHQDAEMAQNAVRLHYGLPVVVKLLHPPSHWPLIKATVGLIRNLALCPANHAPLREQGAIPRLVQLLVRAHQDTQRRTSMGGTQQQFVEGVRMEEIVEACTGALHILARDIHNRIVIRGLNTIPLFVQLLYSPIENIQRVAAGVLCELAQDKEAAEAIEAEGATAPLTELLHSRNEGVATYAAAVLFRMSEDKPQDYKKRLSVELTSSLFRTEPMTWNETGDLGLDIGAQGEPLGYRQDDPSYRSFHSGGYGQDAMGMDPMMEHEMAGHHPGPDYPVDGLPDLGHTQDLIDGLPPGDSNQLAWFDTDL,soluble
